Data reported in publication PMC9082959, “Mechanism of Assembly of the Non-Covalent Spectrin Tetramerization Domain from Intrinsically Disordered Partners” (Journal of molecular biology, 2013).
Numbering of substitutions follows the chain as printed.

Tests used:
Experiment in all cases: ITC; β16β17 at 25–50 μM in the cell titrated with 15–20 injections to 2–2.5 eq of α0α1; one-site binding model; PBS (50 mM sodium phosphate, 150 mM NaCl, pH 7.04), 25 °C; mutants only against the wild-type partner
Details in all cases: both partners purified
[1] = molecular target: T1, β16β17 S16A (human, UniProt P11277 1898-2083, S2019A)
T1 construct: erythrocyte β-spectrin, human, residues 1898-2083 (β16β17); mutant of m2; also called S2019A; source: E. coli C41(DE3), purified (Ni2+ agarose, thrombin cleavage, gel filtration)
T1 sequence (looked up): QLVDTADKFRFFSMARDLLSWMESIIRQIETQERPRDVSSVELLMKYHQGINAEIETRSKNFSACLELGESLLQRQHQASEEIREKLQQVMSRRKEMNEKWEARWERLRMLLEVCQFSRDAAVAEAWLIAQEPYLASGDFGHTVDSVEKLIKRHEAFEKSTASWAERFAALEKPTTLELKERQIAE

[2] = molecular target: T2, β16β17 A24G (human, UniProt P11277 1898-2083, A2027G)
T2 construct: erythrocyte β-spectrin, human, residues 1898-2083 (β16β17); mutant of m2; also called A2027G; source: E. coli C41(DE3), purified (Ni2+ agarose, thrombin cleavage, gel filtration)
T2 sequence (looked up): T1 sequence (looked up) with A122S, A130G

[3] = molecular target: T3, β16β17 K46A (human, UniProt P11277 1898-2083, K2049A)
T3 construct: erythrocyte β-spectrin, human, residues 1898-2083 (β16β17); mutant of m2; also called K2049A; source: E. coli C41(DE3), purified (Ni2+ agarose, thrombin cleavage, gel filtration)
T3 sequence (looked up): T1 sequence (looked up) with A122S, K152A

[4] = molecular target: T4, β16β17 A50G (human, UniProt P11277 1898-2083, A2053G)
T4 construct: erythrocyte β-spectrin, human, residues 1898-2083 (β16β17); mutant of m2; also called A2053G; source: E. coli C41(DE3), purified (Ni2+ agarose, thrombin cleavage, gel filtration)
T4 sequence (looked up): T1 sequence (looked up) with A122S, A156G

[5] = molecular target: T5, β16β17 S57A (human, UniProt P11277 1898-2083, S2060A)
T5 construct: erythrocyte β-spectrin, human, residues 1898-2083 (β16β17); mutant of m2; also called S2060A; source: E. coli C41(DE3), purified (Ni2+ agarose, thrombin cleavage, gel filtration)
T5 sequence (looked up): T1 sequence (looked up) with A122S, S163A

[6] = molecular target: T6, β16β17 K67A (human, UniProt P11277 1898-2083, K2070A)
T6 construct: erythrocyte β-spectrin, human, residues 1898-2083 (β16β17); mutant of m2; also called K2070A; source: E. coli C41(DE3), purified (Ni2+ agarose, thrombin cleavage, gel filtration)
T6 sequence (looked up): T1 sequence (looked up) with A122S, K173A

- Ka [1]: 490000 M⁻¹
- Ka [2]: 242000 M⁻¹
- Ka [3]: 520000 M⁻¹
- Ka [4]: 163000 M⁻¹
- Ka [5]: 1.5e+06 M⁻¹
- Ka [6]: 500000 M⁻¹
B1: α0α1 (erythrocyte α-spectrin residues 2–163), wild type (domain or fragment, human, UniProt P02549 2-163, looked up)
chain: EQFPKETVVESSGPKVLETAEEIQERRQEVLTRYQSFKERVAERGQKLEDSYHLQVFKRDADDLGKWIMEKVNILTDKSYEDPTNIQGKYQKHQSLEAEVQTKSRLMSELEKTREERFTMGHSAHEETKAHIEELRHLWDLLLELTLEKGDQLLRALKFQQY
notes: synthetic gene (GenScript) in a modified pRSETA plasmid; also called α1α0; source: E. coli C41(DE3), purified (Ni2+ agarose, thrombin cleavage, gel filtration)
